The record followed here is US10385327B2, “Enhanced E. coli for the production of fatty acids and method of producing the same” (University of Puerto Rico, priority 2012, dated 2019).

Substrate in the data set: C/C=C/C(=O)SCCNC(=O)CCNC(=O)[C@H](O)C(C)(C)COP(=O)(O)OP(=O)(O)OC[C@H]1O[C@@H](n2cnc3c(N)ncnc32)[C@H](O)[C@@H]1OP(=O)(O)O
Kind of data set: Kinetic assay of dehydratase activity: hydration of crotonyl-CoA monitored at 235 nm, fit to Michaelis-Menten equation. In kind it is biochemical, Photobacterium profundum. The note with it: other: crotonyl-CoA, hydration reaction, substrate 0-600 μM, 25 mM Tris, 150 mM NaCl, 10% glycerol, pH 8.0. As to the method:
For the cloning of fragments into pET200TOPO SEQ.ID15, the amplified DNA was gel purified using a Gel Extraction Kit and incubated with pET200TOPO. The resulting clones were selected in LB-agar containing kanamycin (100 μg/mL). All resistant clones were introduced into E. coli strain SEQ.ID16 BL21-DE3-Codon Plus-RIL and grown in liquid LB at 37° C. until the OD600=0.4 at which time the temperature was decreased to 22° C.° until the OD600=0.6 at which time protein expression was induced with 1 mM IPTG. […]
Dehydratase activity was measured in a hydration assay by using Crotonyl-CoA and Crotonyl-NAC as substrates. […] The values for the absorbance slope (given in mAU/min) were converted to units of μmole of product per minute by using the following equation: μmole of product/min=[Slope/ε×b]×Voltotal (Eq1)
in which the slope is given by the instrument in units of milliabsorbance (mAU) per minute, b is the path length measured to be 0.89 cm for a Voltotal=200 μl in our 96-well plates. The ε is the molar extinction coefficient resulting from the loss of a double bond as defined by the difference in absorbance between crotonyl-CoA and β-hydroxybutyryl-CoA at a particular wavelength. The extinction coefficient was calculated to be ε=969.9 M^−1 cm^−1 for the reaction monitored at 260 nm and ε=790.7 M^−1 cm^−1 for the reaction monitored at 235 nm. […]

B1: DH1-DH2-UMA (His-tagged dehydratase tetradomain fragment, I1096-N-Term, of pfaC PUFA synthase from Photobacterium profundum; pfaC SEQ.ID17, GenBank AF409100.1; … (protein)
chain: IRKPCIWDYEDLVEYAEGDIANVFGPDYAVIDNYSRRVRLPTTDYLLVSRVTKLDATMLEYKPSTMTTEYDIPVDAPYLVDGQIPWAVAVESGQCDLMLISYLGIDFENKGERVYRLLDCTLTFLGDLPRGGDTLRYDISINNFARNGDTLLFFFSYECFVGDKMVLKMDNGCAGFFTDEELSDGKGVIRTEDEIKSRNLAVKQRFNPLLHCQKTQFDYQTLHNLLDANIAGCFGESHISDRHQPSLCFSSDKFMMIEQISHVDPQGGTWGLGLIEGHKQLEADHWYFPCHFKDDSVMAGSLMAEGCGQLLQFFMMYLGMHTQVENGRFQPLENAPQQVRCRGQVLPQSAVLTYRMEVTEIGLSPRPYAKANIDILLDGKVVVDFQNLGVMIKEESECTRYLGSSDFDSASLASSSYVAESAPAQADVITPVEAPISQQASANAPLMAQIPDLNTAPNKGVIPLQHIEAPIVPDYQNRTPDTVPFTPYHMFEFATGDIEKCFGPDFSIYRGMIPPRTPCGDLQLTTRVIEVNGTRGDFKTPSSCIAEYEVPENAWYFDENSHSSLMPYSVLMEISLQPNGFISGYMGTTLGFPGLELFFRNLDGSGKMLRNVDLRGKTIVNDSRLLSTVMMGTNIVQSFSFELSTDGVPFYEGTAVFGYFKGAALKDQLGLDNGQVTYPWHVNNNRTPDVSINLLDKESRYFNAPLSATGEAQPHYQLAGGRLNFIDKVDITSDGGKAGLGYLYAERTIDPSDWFFQFHFHQDPVMPGSLGVEAIIELMQTYALNKDLGAGFRSPKFGQIQSEVKWKYRGQINPLNKQMSLDVHITAIKDEDGKRIIVGDANLSKDGLRIYEVKDIAICIEEA
For B1, the Km is 156 µM and the Vmax is recorded as 0.0001 μmol product/min.
